Source: PMC2225448
Square brackets hold non-standard residues; d marks the D form. Ends that are not written are not given here. pY = N[C@@H](Cc1ccc(OP(=O)(O)O)cc1)C(=O)O

Target: SOCS4-ElonginC-ElonginB ternary complex (human), Q8WXH5
Test: ITC; 0.3-0.4 mM peptide injected into 15 μM protein; 50 mM HEPES (pH 7.5), 150 mM NaCl, 1 mM DTT, 20°C; blank titrations subtracted; single binding site model
Settings: remark: other sources report otherwise

Sequence of SOCS4-ElonginC-ElonginB ternary complex (human), Q8WXH5 (Q8WXH5 274-437, chain 1 of 3): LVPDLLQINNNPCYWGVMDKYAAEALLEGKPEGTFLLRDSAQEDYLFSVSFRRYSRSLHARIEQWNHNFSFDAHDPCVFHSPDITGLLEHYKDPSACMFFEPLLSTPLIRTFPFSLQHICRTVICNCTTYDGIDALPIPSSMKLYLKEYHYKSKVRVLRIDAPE
Sequence of SOCS4-ElonginC-ElonginB ternary complex (human), Q8WXH5 (Q15369 17-112, chain 2 of 3, further chain): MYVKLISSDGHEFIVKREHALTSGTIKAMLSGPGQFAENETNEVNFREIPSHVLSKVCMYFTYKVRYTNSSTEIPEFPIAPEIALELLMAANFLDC
Sequence of SOCS4-ElonginC-ElonginB ternary complex (human), Q8WXH5 (Q15370 whole entry, chain 3 of 3, further chain): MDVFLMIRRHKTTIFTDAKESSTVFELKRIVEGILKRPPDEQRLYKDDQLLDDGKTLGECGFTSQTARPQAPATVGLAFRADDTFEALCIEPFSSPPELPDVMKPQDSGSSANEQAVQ

ASFE[pY]TILDPS [EpoR pY402 peptide ASFE(pY)TILDPS] gave a Ka of 130000 M⁻¹, a Kd of 7.7 µM and a dH of -14.5 kcal/mol. The stoichiometry N was 0.71.
